Source: PMC8751750, “Effect of using different co-ligands during ^99mTc-labeling of J18 peptide on SK-MES-1 cell binding and tumor targeting” (Iranian Journal of Basic Medical Sciences, 2021)
“Also recorded” adds a separate entry of the source. Like-named read-outs stand apart in the source and are kept apart here. Peptide text beside a SMILES is read from it.

Legend:
[1] = tested on: SK-MES-1 cells; assay: Saturation binding assay on SK-MES-1 cells; parameters: species or system human
Experimental: The affinities of (^99mTc) Tc-HYNIC-peptides were determined utilizing a saturation binding experiment with cultivated cells in vitro for determination of the dissociation constant as KD and the number of binding sites per cell (Bmax). SK-MES-1 cells were incubated for 2 hr at 37 °C with increasing concentrations of (^99mTc) Tc- HYNIC- peptides (0.1, 0.5, 1, 2.5, 5, 25, and 50 nM). One dish served as a blocking sample, and it was immersed in a blocking solution containing a 500-fold excess of the non-labeled peptide. For each concentration, three dishes were utilized. Following incubation, the media was withdrawn, and the cells were trypsinized and collected for Gamma counter activity measurement. Prism 5 software (Ver. 5.0) was used to examine the particular binding data using nonlinear regression.

[2] = tested on: A-549 cells; details: previously reported, listed as 99mTc-HYNIC-(Ser)3-J18 (Tricine); cited from earlier work
Excerpt: Table 1 Overview of affinity binding ^99mTc-HYNIC-(Ser)3-J18 on SK-MES-1 vs A-549 cell line | column: A-549 / Tricine; A-549 / tricine/EDDA

[3] = tested on: SK-MES-1, A-549, SKOV-3 and MCF-7 cells; assay: In vitro receptor binding of radiolabeled peptides on four cell lines; parameters: species or system human; details: 2 hr at 37 °C
Experimental: (§1) The in vitro receptor binding of the^ 99mTc-labeled peptide was evaluated using SK-MES-1 a human lung squamous cell carcinoma, SKOV-3 human ovarian carcinoma, and A-549 human lung adenocarcinoma epithelial and MCF-7 human breast cancer cell lines. All cell lines were kept at 37 °C in a 5% CO2 incubator and were maintained in Dulbecco’s DMEM-high glucose supplemented with 10% FBS. Cells were plated in 24-well plates at a density of 4×10^5 cells/well in 1 ml of complete medium and incubated for 24 hr to allow in cells to settle. Following a wash with cold serum-free media or PBS, 40 nM radiolabeled peptides in the full medium were given to the cells, which were then incubated at 37 °C for 2 hr. Finally, cells in culture plates were trypsinized and released, and radioactivity in the cells was measured. To determine specific versus nonspecific binding, SK-MES-1 cells were seeded into 12-well plates at a density of 5×10^5 cells/well and incubated with unlabeled peptides at a concentration 500-fold higher than the labeled peptide for 20 min at 37 °C, followed by the addition of the radiolabeled peptide to the wells. These cells were incubated for 2 hr at 37 °C in a humidified incubator.

[4] = Biodistribution in SK-MES-1 xenografted nude mice; format: in vivo, female C57 nu/nu mice; details: female, C57 nu/nu, mouse, in vivo, iv, total radioactivity, SK-MES-1 xenograft nude mice, n=4; for tissue uptake at 1 h / tissue uptake at 2 h / tissue uptake at 4 h: mean ± SD
Experimental: (§2) The tumor biodistribution and targeting properties of the radiolabeled peptides were carried out in female C57 nu/nu mice bearing SK-MES-1 (Pasture Institute, North Branch and Amol, Iran). The tumor was grafted by subcutaneous injection of SK-MES-1 cells at a concentration of 4×10^6 cells/mouse into the right front flank of the mice and left to grow over a period of 20 days. The mice were ready for biodistribution when tumor size reached 0.7–1 cm^3 in mean diameter, all mice received intravenous co-injections of (^99mTc) Tc-HYNIC-(Ser)3-J18 peptide 1 or (^99mTc )Tc-HYNIC-(Ser)3-J18 peptide 2 (1 μg in 100 μl buffer) after 1, 2, and 4 hr post-injection, respectively (n=4 mice per group). In order to measure the radiopeptides’ nonspecific uptake of the radiopeptides, one group of four animals was injected with 300 μg of non-labeled peptide in a 50 μl buffer. The mice in the blocking group were euthanized 2 hr after the injection. Mice organ and tissue samples were collected, and radioactivity uptake was calculated as a percentage of the administered dose per gram tissue (%ID/g).

[5] = tested on: SK-MES-1 tumors; assay: Biodistribution in SK-MES-1 xenografted nude mice; format: in vivo, female C57 nu/nu mice; details: SK-MES-1 xenograft nude mice, n=4; for Intestine uptake (with contents): mean ± SD
Experimental: as §2

[6] = tested on: SK-MES-1 cells; assay: Specific binding (blocking with unlabeled peptide) on SK-MES-1 cells; parameters: species or system human
Experimental: as §1

[7] = 1 ug, i.v. 1 μg in 100 μl, read-out: Muscle uptake
[8] = 1 ug, i.v. 1 μg in 100 μl, read-out: Spleen uptake
[9] = 1 ug, i.v. 1 μg in 100 μl, read-out: Tumor uptake
[10] = 1 ug, read-out: Tumor/blood ratio
[11] = 1 ug, read-out: Tumor/bone ratio
[12] = 1 ug, read-out: Tumor/liver ratio
[13] = 1 ug, read-out: Tumor/muscle ratio

## CC(C)C[C@H](NC(=O)[C@H](CO)NC(=O)[C@H](CCCNC(=N)N)NC(=O)[C@H](CO)NC(=O)[C@H](CO)NC(=O)[C@H](CO)NC(=O)c1ccc(NN)nc1)C(=O)N[C@@H](Cc1c[nH]c2ccccc12)C(=O)N[C@@H](CO)C(=O)N[C@@H](CC(=O)O)C(=O)N[C@@H](Cc1ccccc1)C(=O)N[C@@H](Cc1ccc(O)cc1)C(=O)N[C@@H](C)C(=O)N[C@@H](CO)C(=O)N[C@@H](C)C(=O)N[C@@H](CO)C(=O)N[C@@H](CCCNC(=N)N)C(=O)NCC(=O)N1CCC[C@H]1C(=O)O [Peptide 1, (^99mTc)Tc-HYNIC-(Ser)3-J18 with tricine, metal not drawn] (HELM PEPTIDE1{[NNc1ccc(C(=O)[*:2])cn1].S.S.S.R.S.L.W.S.D.F.Y.A.S.A.S.R.G.P}$$$$V2.0; C-terminus assumed)
[1]; Figure 4, saturation binding, 2 hr at 37 °C, listed as 99mTc-(tricine)-HYNIC-(Ser)3-J18
  Bmax: (2.2±0.2)·10^4 binding sites/cell
[1]; listed as 99mTc-peptide 1
  binding affinity for SK-MES-1, in words: high binding affinity; also recorded: good receptor-binding affinity
[1]; saturation binding, 0.1-50 nM, 2 hr at 37 °C, blocking with 500-fold excess non-labeled peptide, three dishes per concentration, Prism 5 nonlinear regression, listed as 99mTc-HYNIC-(Ser)3-J18 (Tricine)
  Kd: 3.1 ± 0.3 nM
[1]; saturation binding, 0.1-50 nM, 2 hr at 37 °C, three dishes per concentration, Prism 5 nonlinear regression, listed as 99mTc-HYNIC-(Ser)3-J18 (Tricine)
  Bmax: (2.2± 0.2)×10 ^4 binding sites/cell
[2]
  Kd: 4.1 ± 1.3 nM
[3]; 40 nM radiolabeled peptide
  cellular affinity, in words: strongest cellular affinity for the SK-MES-1 cell line
[3]; higher than tricine/EDDA as coligand, 40 nM
  receptor binding affinity (as CPM/Cells value), tricine vs tricine/EDDA as coligand: 2.5 fold
[4]; 1 ug, i.v. 1 μg in 100 μl, read-out: Blood uptake
  tissue uptake at 1 h: 0.18 ± 0.09 %ID/g
[4]; [7]
  tissue uptake at 1 h: 0.19 ± 0.05 %ID/g
  tissue uptake at 4 h: 0.04 ± 0.01 %ID/g
[4]; [8]
  tissue uptake at 1 h: 0.25 ± 0.07 %ID/g
  tissue uptake at 4 h: 0.03 ± 0.01 %ID/g
[4]; 1 ug, i.v. 1 μg in 100 μl, read-out: Stomach uptake
  tissue uptake at 1 h: 0.38 ± 0.09 %ID/g
[4]; [9]
  tissue uptake at 1 h: 0.97 ± 0.03 %ID/g
  tissue uptake at 4 h: 0.2 ± 0.09 %ID/g
[4]; [10]
  tissue to tissue ratio at 1 h: 5.36
  tissue to tissue ratio at 4 h: 3.81
[4]; [11]
  tissue to tissue ratio at 1 h: 7.46
  tissue to tissue ratio at 4 h: 20
[4]; [12]
  tissue to tissue ratio at 1 h: 3.59
  tissue to tissue ratio at 4 h: 2.85
[4]; [13]
  tissue to tissue ratio at 1 h: 5.1
  tissue to tissue ratio at 4 h: 5
[4]; 1 ug, 2 hr, i.v. 1 μg in 100 μl, read-out: Heart uptake
  tissue uptake at 2 h: 0.12 ± 0.04 %ID/g
[4]; 1 ug, 2 hr, i.v. 1 μg in 100 μl, read-out: Liver uptake
  tissue uptake at 2 h: 0.2 ± 0.09 %ID/g
[4]; 1 ug, 2 hr, i.v. 1 μg in 100 μl, read-out: SG&T (salivary glands and thyroid) uptake
  tissue uptake at 2 h: 0.13 ± 0.05 %ID/g
[4]; 1 ug, 2 hr, i.v. 1 μg in 100 μl, read-out: Spleen uptake
  tissue uptake at 2 h: 0.15 ± 0.04 %ID/g
[4]; 1 ug, 2 hr, i.v. 1 μg in 100 μl, read-out: Stomach uptake
  tissue uptake at 2 h: 0.25 ± 0.03 %ID/g
[4]; 1 ug, 2 hr, i.v. 1 μg in 100 μl, read-out: Tumor uptake
  tissue uptake at 2 h: 0.5 ± 0.03 %ID/g
[4]; 1 ug, 2 hr, read-out: Tumor/liver ratio
  tissue to tissue ratio at 2 h: 2.5
[4]; 1 ug, 2 hr, read-out: Tumor/muscle ratio
  tissue to tissue ratio at 2 h: 6.16
[4]; 1 ug, i.v. 1 μg in 100 μl, read-out: Bone uptake
  tissue uptake at 4 h: 0.01 %ID/g
[4]; 1 ug, i.v. 1 μg in 100 μl, read-out: Heart uptake
  tissue uptake at 4 h: 0.07 ± 0.01 %ID/g
[4]; 1 ug, i.v. 1 μg in 100 μl, read-out: Kidney uptake
  tissue uptake at 4 h: 0.27 ± 0.03 %ID/g
[4]; 1 ug, i.v. 1 μg in 100 μl, read-out: Liver uptake
  tissue uptake at 4 h: 0.07 ± 0.02 %ID/g
[4]; 1 ug, i.v. 1 μg in 100 μl, read-out: Lung uptake
  tissue uptake at 4 h: 0.04 ± 0.01 %ID/g
[4]; 1 ug, i.v. 1 μg in 100 μl, read-out: SG&T (salivary glands and thyroid) uptake
  tissue uptake at 4 h: 0.03 ± 0.02 %ID/g
[4]; 1 ug, read-out: Tumor/kidney ratio
  tissue to tissue ratio at 4 h: 0.74
[4]; 2h-blocked (300 μg non-labeled peptide 0.5 hr before), i.v. 1 μg, read-out: Blood uptake
  tissue uptake at 2 h: 0.36 ± 0.02 %ID/g
[4]; 2h-blocked (300 μg non-labeled peptide 0.5 hr before), i.v. 1 μg, read-out: Heart uptake
  tissue uptake at 2 h: 0.18 ± 0.03 %ID/g
[4]; 2h-blocked (300 μg non-labeled peptide 0.5 hr before), i.v. 1 μg, read-out: Kidney uptake
  tissue uptake at 2 h: 3.2 ± 0.02 %ID/g
[4]; 2h-blocked (300 μg non-labeled peptide 0.5 hr before), i.v. 1 μg, read-out: Liver uptake
  tissue uptake at 2 h: 0.23 ± 0.04 %ID/g
[4]; 2h-blocked (300 μg non-labeled peptide 0.5 hr before), i.v. 1 μg, read-out: Muscle uptake
  tissue uptake at 2 h: 0.23 ± 0.03 %ID/g
[4]; 2h-blocked (300 μg non-labeled peptide 0.5 hr before), i.v. 1 μg, read-out: SG&T (salivary glands and thyroid) uptake
  tissue uptake at 2 h: 0.17 ± 0.02 %ID/g
[4]; 2h-blocked (300 μg non-labeled peptide 0.5 hr before), i.v. 1 μg, read-out: Spleen uptake
  tissue uptake at 2 h: 0.2 ± 0.01 %ID/g
[4]; 2h-blocked (300 μg non-labeled peptide 0.5 hr before), i.v. 1 μg, read-out: Stomach uptake
  tissue uptake at 2 h: 0.3 ± 0.02 %ID/g
[4]; 2h-blocked (300 μg non-labeled peptide), read-out: Tumor/blood ratio
  tissue to tissue ratio at 2 h: 0.8
[4]; 2h-blocked (300 μg non-labeled peptide), read-out: Tumor/liver ratio
  tissue to tissue ratio at 2 h: 1.26
[4]; 2h-blocked (300 μg non-labeled peptide), read-out: Tumor/muscle ratio
  tissue to tissue ratio at 2 h: 1.26
[5]; 1 hr, i.v. 1 μg in 100 μl
  Intestine uptake (with contents): 0.73±0.06 percentage of injected dose per whole sample
[5]; 1 hr, listed as 99mTc-peptide 1
  Tumor/muscle ratio: 5.1
[5]; 2h-blocked (300 μg non-labeled peptide 0.5 hr before), i.v. 1 μg
  Intestine uptake (with contents): 0.24 ±0.09 percentage of injected dose per whole sample
[5]; 2 hr, i.v. 1 μg in 100 μl
  Intestine uptake (with contents): 0.59±0.02 percentage of injected dose per whole sample
[5]; 4 hr, i.v. 1 μg in 100 μl
  Intestine uptake (with contents): 0.04±0.01 percentage of injected dose per whole sample
[6]; 500-fold unlabeled peptide 20 min at 37 °C, then radiolabeled peptide 2 hr at 37 °C, listed as 99mTc-peptide 1
  reduction of binding by pre-saturation with unlabeled J18 peptide: ~11.5 fold
[6]; abstract, listed as 99mTc-peptide 1
  specific binding: 11.5 fold
[6]; listed as 99mTc-J18 peptide with tricine co-ligand
  specific binding to SK-MES-1, in words: higher specific binding to SK-MES-1 in comparison with tricine/EDDA coligand
[6]; listed as 99mTc-peptide 1
  specific binding to SK-MES-1, in words: high specific binding; also recorded: high specificity
